Measured values: patent US8703698B2, “Compositions and methods for treating atherosclerosis” (The University of Chicago, priority 2003, dated 2014)

What was measured:
J774 macrophages = experiment: Cholesterol efflux from cholesterol-laden J774 macrophages to apolipoprotein liposomes with 8-bromo-cAMP or methyl-β-cyclodextrin; assay type: cell-based, mouse
Excerpt: The export process of cholesterol is coupled to the ATP binding cassette transporter (ABCA1) pathway. Lipid efflux to apolipoproteins has been shown previously to be stimulated by treatment of murine macrophages with cAMP analogues (Lin et al. 2002 Biochem Biophys Res. Commun. 290:663-669; Oram et al. 2000 J. Biol. Chem. 275:34508-34511). Also, the expression of ABCA1 is induced by cAMP treatment (Lin et al. 2002 Biochem Biophys Res. Commun. 290:663-669; Oram et al. 2000 J. Biol. Chem. 275:34508-34511). The inventors herein examined the effect of 8-bromo-cAMP (0.3 mM) on cholesterol efflux by liposomes containing various apolipoproteins when incubated with cholesterol-laden J774 macrophages. Such cells were pre-labeled with [^3H]-cholesterol in the presence of Sandoz 58-035, an ACAT inhibitor, to ensure that all of the radiolabeled cholesterol released from the cells was derived from the un-esterified cholesterol pool, and the cells were treated for 12 hours with 8-bromo-cAMP. This was followed by incubation with various acceptors. The fractional release of cellular labeled cholesterol was determined as a function of time.
To investigate whether an apolipoprotein free cholesterol acceptor such as cyclodextrin has the ability to catalyze the removal of cholesterol from macrophages, cholesterol-loaded and labeled J774 cells were incubated with liposomes and methyl-β-cyclodextrin (0.1 mM) (CD).
To examine whether cholesterol export from J774 cells to medium containing liposomes containing 2 μM murine apoA-1, SAA1.1 or SAA2.1 is a cAMP-dependent process, the radio-labeled cholesterol-laden cells were incubated overnight with 8-Br-cAMP (0.3 mM), prior to the addition of liposomes containing 2 μM murine apoA-1, SAA1.1 or SAA2.1 to the culture medium. Cholesterol efflux to the medium was then determined at the indicated time points as described above. Efflux of radioactive label to the medium was calculated as a percentage of total counts in each well.

[1] = target: T1, acyl CoA:cholesterol acyl transferase (Mus musculus, UniProt Q61263); experiment: ACAT activity in macrophage post-nuclear homogenates; assay type: biochemical, murine; settings: macrophage post-nuclear homogenates as enzyme source
T1 construct: host or cells: J774 mouse macrophages, cholesterol-loaded
T1 sequence (Q61263 1-540): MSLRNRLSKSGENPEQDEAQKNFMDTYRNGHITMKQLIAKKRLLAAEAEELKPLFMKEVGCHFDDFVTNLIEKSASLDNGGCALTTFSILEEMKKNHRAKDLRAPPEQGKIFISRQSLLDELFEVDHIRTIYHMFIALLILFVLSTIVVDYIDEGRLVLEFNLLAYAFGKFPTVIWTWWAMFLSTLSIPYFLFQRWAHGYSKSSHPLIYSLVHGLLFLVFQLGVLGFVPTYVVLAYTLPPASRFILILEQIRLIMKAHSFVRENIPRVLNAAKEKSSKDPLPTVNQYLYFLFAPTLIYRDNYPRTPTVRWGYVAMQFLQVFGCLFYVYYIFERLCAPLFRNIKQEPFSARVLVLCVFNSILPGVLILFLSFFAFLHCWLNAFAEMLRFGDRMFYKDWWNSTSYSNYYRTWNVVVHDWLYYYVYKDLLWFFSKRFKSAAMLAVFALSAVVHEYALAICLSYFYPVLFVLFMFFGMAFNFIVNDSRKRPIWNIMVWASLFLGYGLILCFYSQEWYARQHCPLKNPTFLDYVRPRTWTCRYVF
Excerpt: The in vitro effects of acute phase-HDL (AP-HDL;HDL-SAA) on acyl CoA:cholesterol acyl transferase and cholesterol ester hydrolase activities and on cellular cholesterol export were studied by the inventors using purified enzymes, cell homogenates, and whole cells. […] In contrast, murine SAA1.1 and apoA-1 had no effect. […] Using macrophages preloaded with radio-labeled cholesterol and injected intravenously into either inflamed or un-inflamed mice, it was shown that the inflamed mice, which have high SAA2.1 levels, effluxed cholesterol more rapidly and to a greater extent (6-fold greater) than their un-inflamed counterparts.

[2] = target: T1, acyl CoA:cholesterol acyl transferase; settings: intact murine macrophages and post-nuclear homogenates; Ely et al. 2001; cited from earlier work
[3] = test system: hepatic, macrophage, and pancreatic cholesterol esterase; settings: Lindhorst 1997; Ely 2001; Tam 2002; cited from earlier work

B1: GFFSFVHEAFQGAGDMWRAYTDMKEANWKNSDKYFHARGNYDAAQRGPGGVWAAEKISD GREAFQEFFGRGHEDTIADQEANRHGRSGKDPNYYRPPGLPDKY (protein, listed as Mus musculis)
chain: GFFSFVHEAFQGAGDMWRAYTDMKEANWKNSDKYFHARGNYDAAQRGPGGVWAAEKISDGREAFQEFFGRGHEDTIADQEANRHGRSGKDPNYYRPPGLPDKY
notes: full length murine serum amyloid A isoform 2.1 purified from acute phase plasma
For B1, the “increase in the initial rate of cholesterol efflux to liposomes after cAMP pre-treatment versus untreated cells” value (J774 macrophages; 8-bromo-cAMP 0.3 mM, 12 hours, Sandoz 58-035 present) was 62.1%, the “further increase in cholesterol efflux by cAMP pre-treatment” value (J774 macrophages; cells exposed to liposomes and CD) was 45.5% and the “increase in the initial rate of cholesterol efflux with CD treatment” value (J774 macrophages; methyl-β-cyclodextrin 0.1 mM plus liposomes) was 4 fold. For the same molecule, the “acyl CoA:cholesterol acyl transferase activity” value [1] was “inhibit acyl CoA:cholesterol acyl transferase activity in a dose-dependent manner”, the “macrophage ACAT activity” value [2] was “inhibit macrophage acyl CoA:cholesterol acyl transferase (ACAT) activity” and the “cholesterol esterase activities in vitro” value [3] was “stimulate hepatic, macrophage, and pancreatic cholesterol esterase activities in vitro”.
